Results: patent US20180194839A1 (Novartis, published 2018)
Positions count from the first letter of the chain named. Names and notes keep the numbering of the source.

B1: XAB4 (antibody, human IgG1, kappa, V domains shown)
VH: EVQLVESGGDLVQPGGSLRLSCAASGFTFSSYWMSWVRQAPGKGLEWVANIKQDGSEKYYVDSVKGRFTISRDNAKNSLYLQMNSLRAEDTAVYYCARDRGSLYYWGQGTLVTVSS
VL: AIQLTQSPSSLSASVGDRVTITCRPSQGINWELAWYQQKPGKAPKLLIYDASSLEQGVPSRFSGSGSGTDFTLTISSLQPEDFATYYCQQFNSYPLTFGGGTKVEIKR
notes: also called MB435 N56Q
B2: XAB1 (antibody, human IgG1, kappa, V domains shown)
VH: B1 VH
VL: B1 VL with N30I, W31S, E32A, Q56N
notes: human IgG1/kappa monoclonal antibody; also called parental XAB1; XAB1 IgG

Experiments:
[1] = biological target: T1, recombinant human IL-17F (SEQ ID NO: 77) (human, UniProt Q96PD4 31-163); test: ELISA, coated cytokine, Ab 10 µg/ml;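 further: antibodies incubated 3 h at room temperature on the coated wells, binding detected with alkaline phosphatase-conjugated anti-IgG secondary antibodies matching the species of each test antibody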
T1 construct: homodimer; also called huIL-17F; rhuIL-17F
T1 sequence: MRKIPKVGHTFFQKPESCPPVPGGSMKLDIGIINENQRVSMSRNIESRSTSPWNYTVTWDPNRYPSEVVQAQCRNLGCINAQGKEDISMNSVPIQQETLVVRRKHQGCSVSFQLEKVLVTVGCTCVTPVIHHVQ

[2] = biological target: T2, recombinant mouse IL-17A (SEQ ID NO: 83) (mouse, UniProt Q62386 26-158); test: SPR (Biacore), captured antibody, antigen as analyte
T2 construct: also called mIL-17A; rmIL-17A
T2 sequence: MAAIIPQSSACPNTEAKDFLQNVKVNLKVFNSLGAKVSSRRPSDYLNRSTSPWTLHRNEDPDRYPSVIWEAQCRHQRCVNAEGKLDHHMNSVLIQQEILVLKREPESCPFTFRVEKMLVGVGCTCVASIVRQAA

[3] = biological target: T3, recombinant cynomolgus IL-17A (SEQ ID NO: 79) (cynomolgus monkey, UniProt Q16552 24-155 (human entry), limits assumed); test: as above
T3 construct: also called cynoIL-17A; cyno IL-17A
T3 chain: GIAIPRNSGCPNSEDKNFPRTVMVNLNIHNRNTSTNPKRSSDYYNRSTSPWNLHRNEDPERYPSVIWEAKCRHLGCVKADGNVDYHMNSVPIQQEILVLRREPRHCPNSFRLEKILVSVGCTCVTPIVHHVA

[4] = biological target: T4, recombinant human IL-17A/F heterodimer (human, UniProt Q16552 24-155; Q96PD4 31-163, limits assumed); test: as above
T4 construct: heterodimer of an IL-17A subunit and an IL-17F subunit; also called huIL-17A/F; rhuIL-17A/F
T4 sequence (looked up) 1: T3 chain with A3T, S8P, S34N, V77I, K78N, R104P
T4 sequence (looked up) 2: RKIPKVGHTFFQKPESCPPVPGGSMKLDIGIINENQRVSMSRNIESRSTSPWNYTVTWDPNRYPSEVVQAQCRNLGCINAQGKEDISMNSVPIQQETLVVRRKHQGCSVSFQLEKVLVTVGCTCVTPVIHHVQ

[5] = biological target: T5, marmoset IL-17A (SEQ ID NO: 82) (marmoset monkey); test: as above
T5 construct: also called marmIL-17A
T5 chain: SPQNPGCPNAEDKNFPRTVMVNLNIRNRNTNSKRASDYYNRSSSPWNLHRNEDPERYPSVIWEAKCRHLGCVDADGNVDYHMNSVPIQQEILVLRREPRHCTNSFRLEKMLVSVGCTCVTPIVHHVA

[6] = biological target: T6, recombinant human IL-17A (SEQ ID NO: 78) (human, UniProt Q16552 24-155, limits assumed); test: as above
T6 construct: homodimer; also called huIL-17A; hulL-17A
T6 sequence: T3 chain with A3T, S8P, S34N, V77I, K78N, R104P

[7] = biological target: T7, recombinant mouse IL-17A/F (R&D Systems Cat#5390-IL) (mouse, UniProt Q62386 26-158; Q7TNI7 29-161, limits assumed); test: as above
T7 construct: bought heterodimer; also called mIL-17A/F; rmIL-17A/F
T7 sequence (looked up) 1: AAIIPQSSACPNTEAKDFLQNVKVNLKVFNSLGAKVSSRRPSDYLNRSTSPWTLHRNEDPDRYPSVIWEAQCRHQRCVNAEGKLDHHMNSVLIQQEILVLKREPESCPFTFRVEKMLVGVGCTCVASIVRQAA
T7 sequence (looked up) 2: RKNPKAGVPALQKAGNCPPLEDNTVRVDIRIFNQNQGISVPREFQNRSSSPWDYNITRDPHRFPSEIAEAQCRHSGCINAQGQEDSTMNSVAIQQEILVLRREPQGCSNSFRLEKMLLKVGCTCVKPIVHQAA

[8] = biological target: T8, recombinant rat IL-17A (SEQ ID NO: 85) (rat, UniProt Q61453 18-150); test: as above
T8 construct: also called rratIL-17A; rIL-17A
T8 sequence: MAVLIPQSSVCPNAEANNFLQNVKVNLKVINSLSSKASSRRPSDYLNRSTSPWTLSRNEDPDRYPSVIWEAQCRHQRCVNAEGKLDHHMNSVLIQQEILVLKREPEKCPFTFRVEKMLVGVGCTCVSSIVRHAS

[9] = biological target: T1, recombinant human IL-17F (SEQ ID NO: 77); test: ELISA, coated antigen
[10] = biological target: T3, recombinant cynomolgus IL-17A (SEQ ID …); test: ELISA, coated antigen, Ab 1 µg/ml
[11] = biological target: T1, recombinant human IL-17F (SEQ ID NO: 77); test: ELISA, coated antigen, Ab 1 µg/ml
[12] = biological target: T9, recombinant cynomolgus IL-17F (SEQ ID NO: 80) (cynomolgus monkey, UniProt Q96PD4 31-163 (human entry), limits assumed); test: ELISA, coated antigen, Ab 1 µg/ml
T9 construct: also called cynoIL-17F; cyno IL-17F
T9 chain: T1 sequence with G23E, I30T, R74K, N75H, V101L, I130V

[13] = biological target: T8, recombinant rat IL-17A (SEQ ID NO: 85); test: ELISA, coated antigen, Ab 1 µg/ml
[14] = biological target: T10, human IL-17A (construct not stated) (human, UniProt Q16552 24-155, limits assumed); test: cell-based or functional assay
T10 sequence: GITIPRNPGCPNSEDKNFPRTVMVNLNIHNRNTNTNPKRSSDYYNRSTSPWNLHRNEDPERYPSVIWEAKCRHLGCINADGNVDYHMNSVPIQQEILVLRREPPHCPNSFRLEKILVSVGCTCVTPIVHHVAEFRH

Binder | O.D. [1] | Kd [2] | Kd [3] | Kd [4] | Kd [5] | Kd [6] | Kd [7] | Kd [8] | binding result [9] | O.D. [10] | O.D. [11] | O.D. [12] | O.D. [13] | IC50, in vitro neutralization, Hu IL-6 sec [14] | IC50, in vitro neutralization, Hu IL-8 sec [14]
B1 | 0.035 O.D. | 0.16 nM | 0.031 nM | < 0.011 nM | 0.018 nM | 0.0057 nM | 0.26 nM | 0.084 nM | no binding (tested: 1 µg/ml) | 1.93 O.D. | 0.049 O.D. | 0.085 O.D. | 1.77 O.D. | – | –
B2 | – | – | – | – | – | – | – | – | – | – | – | – | – | 4 nM | 3 nM
